Assay: soluble on expression in E. coli; label from the status in PepcDB or PDB records

Sequence: MQNAIKTDASNSTVEARDEEPVAANDNKPASNPGTSVTEDSVAYIFASTYRDTLRFCHSTGAWFEWDGSYWRRNEVGLAAHHVRVMARDMSQGLSPKALATIRKRSFASGVEGFARNDPTFAVTIEAWDRDPFLLGTPDGTVDLRTGKMRAADPADGITKLTSTAPSAQADCPLWLRFLQDATGGDGEMIRFLQQWCGYCLTGDTREHALVFVHGDGGNGKSVFLNTTSYILHDYATTASMDTFVASRSDRHPTDLAMLRGARLVSASETEEGRAWAESRIKQMTGGDAISARFMRQDFFTFQPQFKLFVVGNHQPALHSVDAAARRRFNIVPFTRKPTKPDRELEAKLRGEAPAILRWMVDGCRDWQRNGLVRPASIVEATETYFAEQDTFGQWLKDACRVEPDNRSISDFVADLFKSWTDYAEASGERPGSQKGFVQSLTKSGFKKGQRVRGGQLYIGLQLLRQAEKEPSVRDLEHHHHHH
- soluble on expression in E. coli: soluble

Sequence: MHEWALADAIVRTVLDYAQKEGASRVKAVKVVLGELQDVGEDIVKFAMEELFRGTIAEGAEIIFEEEEAVFKCRNCGHVWKLKEVKDKLDERIREDIHFIPEVVHAFLSCPKCGSHDFEVVKGRGVYISGIMIEKEGEELEHHHHHH
- soluble on expression in E. coli: soluble

Sequence: MLEEQLYLLACIFASRADTRNIKKLSTRLGSQSKYLEILCVLWPELDDPKNLLFLRELEEEVQSPEGEETTDEDVIVELLESDSSLIPLIESDTTTRSNRYHELQEFISKKLNNKTLENFEEWLRERILICNEMIPETPLLYSVLWETAKSKVLSTKFIGWVEGVLKPLDHLNKRLHLIFKINEWEKMPDSELFKIIFDGVEDMQGYIGIADVIEDELAPTLSYGKKWETFITEFFNKQQFSLKSDTNYQLFIKLYYSLEKGVKDNSEASRKLQSNVVDILFHNSENLFNLSSLTHKLDELWSILSGFPDEITIEEQKTITALEMKQFMEFFIKCSTKFSFKEIFAITQEEESAQLAHFSSLCHEEFNKANEISSFLQAMYETVLDISKDDKIFTRISMDEKLYSILEILLQMNEFAYIEAIIERFDYSNNTQIYELLVKFFWHFFNNASNGLRKEPEMKKASQTLQIIQKHMSQRAGTNLTKLEVLLEISDKLSHYSINLNKSHNGARDTAFKPSNILEYRDCPLDIISNLLELNPRLYKDLPTTKSLLFGIYDSLSINREGQTGKVEVDLMVLHIDYALVNLDFGTAYELGKQVFEICQEAGQHMMKALGDEHWLTFYQMGKFVDPNWVDNEIPTEIIVLQMSILGRLLEVCPLEEVEIVTSQWSTLELELSARDLVKDKYALDGQNDNKSKVGGIAREIFHNVTNF
- soluble on expression in E. coli: soluble

Sequence: MPTPARKTQKGGRKRRVNGVEEEILYIIGFFQDDSSIGLSTFFTKFCILYQDSKSNFRVLNLEMFSPENLNARKKMSQEKDTPSH
- soluble on expression in E. coli: not soluble

Sequence: GPGSMRISERAFMDIAIGTKAPRRIVFKLFPRKCPSAVKNFIELCSGNVSTDTYESGNRDKLISESALPQLTYKNSTFHRVEKGYLIQGGDIVTGRGTEQLSIYGGTFSAPEEVRASVFDKPGLVGTASSSPNAHGSQFFILTAKEANHLNGTCICFGQVADGLDVVQEIEQVPIDPSGFPSLKVSIVDCGVLE
- soluble on expression in E. coli: soluble

Sequence: GAMAGSIRSKLSAIDVRQLGTVDYRTAWQLQRELADARVAGGADTLLLLEHPAVYTAGRRTETHERPIDGTPVVDTDRGGKITWHGPGQLVGYPIIGLAEPLDVVNYVRRLEESLIQVCADLGLHAGRVDGRSGVWLPGRPARKVAAIGVRVSRATTLHGFALNCDCDLAAFTAIVPCGISDAAVTSLSAELGRTVTVDEVRATVAAAVCAALDGVLPVGDRVPSHAVPSPL
- soluble on expression in E. coli: soluble

Sequence: MGSDKIHHHHHHMPNIEKYEIFLDFNGNEYEGVEKIYLNSEEEKLELDSVNLEIRSVKSDGKDTKFELKGEKLVIYGKIERELEIKFKGKASRDSILGIYVAPYDGKGMITTQFEAVYARRFIPCFDHPAMKARFKLSVRVQKGLKVISNMPVERIEEDVDGKVIYRFQETPKMSTYLLYLGIDEFEEISDNSKQPTVILATVPGKSKRGLFAINVARKVIEFYEKYFEIPYQLPKVHLIQVPEFAAGAMENWGAITFRETALLADDSSSISQKFRVAEVVAHELAHQWFGNLVTLKWWDDLWLNESFATFMSYKSIKHLFPQWDSEGHLIYDESIGALEDDSLSTTHPIEAHVKDPHEIEQMFDNISYGKGASILKMIEAYVGEENFRRGVVNYLNSFKFGNAEGKDLWNSISNAAGQSIGEIMADWITKPGYPVIFVNAYGNSIRFSQKRFTLLDSGLNEVYKVPITYEINDKFGTLLLDKESAEIRLDEGLKSIKVNINRTGFYRVLYDSLNLAFSSKLNAYEELGLVNDYWNFLLADLIDAKTYFGVIGRFVYTSNSFVSREITSQLLTLYYLFKKNYGKDFLVNQVKIFRKANDDLGKLAYSTVISALARMDEEFALGLSTLFDQYENIDSNIKEAVAIAYAVTNNDFNTLLEKYKRYTIDEEKNRILSAISSLRDPSIVVKVFSLIFERNIKAQDTRFVISSLLHNPHIREEVCSYLMNNFEEVKKFVNTVYGGPWGLGSIVRSMSFCGVDKPKDIIDFLEKVKFKEIERPIKESEERIKVYSRLKQNLP
- soluble on expression in E. coli: not soluble

Sequence: QLHLSLPSDTQASYSSTQRKQAEIMAEGFGPGINSPFLVVADAHSVDENAEILEPLIRAQNPAPGERKQAAANAAYQYIIQKYSVTPDVKHVQIVGLSKDGLAAQLLLTPESSPEDDVTKQLIDALLIKQDEVNNATGIRSGITGLIPVQQDVTNR
- soluble on expression in E. coli: not soluble

Sequence: MSLTTFIQLHLLTAYPAANLNRDDTGAPKTVVLGGATRLRVSSQSLKRAWRTSALFEQALAGHIGIRSGRIAREAATILIEKGIEEKKAIEWAAKIADYLGKAKNDKKPKDPLTNAETEQLVHISPAEFDAVKALAHQLAEEKRAPKEEDLALLRKDRMAVDIAMFGRMLANKPEFNVEAACQVAHAFGVSETIVEDDFFTAVDDLRQASEDAGAGHLGETGFGSALFYTYICIDKDLLVENLGGDEALANQTLRAFTEAALKVSPTGKQNSFASRAYASWALAEKGTEQPRSLAAAFYEPINGTRQLDVAVQRITTLRENMNTVYEQKTECASFDVMNKQGSMKDVLDFICAEGHHHHHH
- soluble on expression in E. coli: soluble

Sequence: MGSDKIHHHHHHMPLCPSCEMKFNSWEDLAKHMDLIANTNSDKSHVMWLNRNISMKRMEVNELANALERFFSTPNSLSMWIRTRFIERFYGDNPHPFIVAMQNPTKGVLLGYVIEHQHFLKNWVKVLSSIVFKTDKDDVLQYELENISVEFIGYNGRPAHYELLLRMGEALGMPREKILSTQPLPSTQSAIKTWRKIAESKTWLETMASMHSLELVADRSLVKYGAKLPYFNPEILSSDEYPQAVKDFLREGYEADVSHAGEALEMVEKYTEEMEMKEQVQITVLKSFDAFSKYLLARLERGFEIEPSLLKRVIK
- soluble on expression in E. coli: not soluble

Sequence: MGSDKIHHHHHHMKYIINHSNDTAFNIALEEYAFKHLLDEDQIFLLWINKPSIIVGRHQNTIEEINRDYVRENGIEVVRRISGGGAVYHDLNNLNYTIISKEDENKAFDFKSFSTPVINTLAQLGVKAEFTGRNDLEIDGKKFCGNAQAYINGRIMHHGCLLFDVDLSVLANALKVSKDKFESKGVKSVRARVTNIINELPKKITVEKFRDLLLEYMKKEYPEMTEYVFSEEELAEINRIKDTKFGTWDWNYGKSPEFNVRRGIKFTSGKVEVFANVTESKIQDIKIYGDFFGIEDVAAVEDVLRGVKYEREDVLKALKTIDITRYFAGISREEIAEAVVG
- soluble on expression in E. coli: soluble

Sequence: MSNVTPKLVWPEDDYVDESLLEDHQGPARLEYDALVMLANLPPLTEEIMSRCPALPVKTRSTPEYTLVLDLDETLVHCSLTPLDNATMVFPVVFQNITYQVYVRLRPHLRTFLSRMAKTFEIIIFTASKKVYANKLCDILDPRKNHIRHRLFREHCVCVFGNYVKDLTILGRDPSKTMILDNAVQSFAYQLDNGIPIESWFHDRNDTELLKLCSFLEAIPTLGRDVREILRHKYRLRDHIPFYSIIHQQEGPGRLPLLEVAPPPVTEPNDEQLITQVVQKHPQLVQG
- soluble on expression in E. coli: soluble

Sequence: METVQDCENKLPPSLKSRLCEIRRYEIIEGPEMDKHIHCVMRALDFVYEDGRGDYHKLYDPLNIIELDKRHDVNLEKCIGECVQVPTSERAHVFYKCLLKSTTGRTFKKVFDLMELKKAGKVPQHQRYTAEFVQIMKDYDKALNC
- soluble on expression in E. coli: soluble

Sequence: MSLINAGITTVGEFHYVHHSEQKFDLDQLVIQAAIDAGIRIVLLQTLYERAGFDSPAVHPVQERFIASYEDFIGNLEKLRKEKTHERVQIGVAAHSARAVPFENIKKLFEYASEHKIPFHIHLEEQPKEIFDCQKFIGQKQGPSDLILSKMHLNEYFTAVHSTFTPANNMLLFSKLGANVSICPCTEGYLGDGIPRINESLKISFGTDCNNRICFLEEMRWACFSQQMLNNSRSVCGLSPEKLLLCATIDGARALSLTSKTGSLEVGKYFDAISFSLDSPLLENSLADTLIDSLVLSAGNREISNVFVSGVDRKTEGHHHHHH
- soluble on expression in E. coli: not soluble

Sequence: MGSDKIHHHHHHMPEPELMDDPLQARAYAEADFSCGDEALIQRLQEYLISLCKIPSPGSMIVDLGCGPGNICERLQRLWPEVMVLGIDGAQAMLDHALQRQKAMAAELKRLTYRCSNLSSLVNQCVDLKCSAALVVSNSLLHHLHDPNLLWQVTKYLAAPGAFVFHRDLRRPLSTKHAIALQQKHMQEAPSILIRDYLASLHAAFTLEEVQSQLVHAGLDHLHVIEVEDRYLDVFGTI
- soluble on expression in E. coli: not soluble

Sequence: MGSDKIHHHHHHMPIYVYWGEDDFAIAKAVTTLRDRVLDPLWTSFNYTSFPPEDSEAPIQALNQVMTPVFGAGGRLVWLMNTNLLQNCPENVLAELTRTLSVIPENSFLLLTCRNKPDERLKSTKLLKQSATEFREFPLIPPWKTELLIQAVNQAAQTVGVKLTPKSAELLAEAVGNDTRLLYNEMEKLRLYAEDNNRPIEENTVTRLVRNTTQNSLQLAAAIRVGDTAKALTILADLINAAEPELRIIATLIGQFRTWLWVKLMVESGERNPQAIAQAAEIGNPKRIYFLQQEVQSLSLRQLISCLPLLLELEVTVKQGRAEISILQIKIIELCQLCQRI
- soluble on expression in E. coli: not soluble

Sequence: MAHHHHHHMGTLEAQTQGPGSMKNYRIESDSFGEIQIEEKFYWGAQTQRSLNNFKISKQKMPKILIRALAILKKCAAQVNYEFGDLEYKIATSIDKAIDRILAGEFEDNFPLVVWQTGSGTQTNMNMNEVIASIANEELTGKKGGKFPVHPNDHVNKGQSSNDSFPTAMHIATVLATKQQLIPALNNLLTYLQDKSKDWDKIIKIGRTHLQDATPLTLKQEFSGYITQIEYALERIEDALKKVYLLAQGGTAVGTGINSKIGFDIKFAQKVAEFTQQPFKTAPNKFESLAAHDALVEFSGTLNTIAVSLMKIANDIRLLGSGPRCGLGELHLPENEPGSSIMPGKVNPTQVEALTMVCTQVMGNHVTVTIAGSNGHLELNVFKPVIIYNILQSIELLSDSVNSFVTHCVKGLEPNIARINTLRDKSLMLVTVLNPHIGYDNAAKIAKEAHKYGITLKEAAKKLNFLSEEEFDKIVVPEKMIS
- soluble on expression in E. coli: soluble

Sequence: MKKVGVVIPIYNVEKYLKECLDSVINQTYTNLEIILVNDGSTDENSLNIAKEYTLKDKRIILFDKKNGGLSSARNVGIEYFSGEYETQYIEKENELNVFKIIGDNPQNIYKIYKYKNALASDKLEISKIDYIIFLDSDNYWELNCIEECVVRMQNVDVLWFDHACIYDDGIEDKGQKTRMNVFNFTQECTITPRDYAKQAIKVGSRDISFSWGGMIDFSFLKQLKLKFINKIINEDIHFGMVLFASADSIYILPKRLYLCRLRANSISNHDKKVTKANVSEYFKDLYEFFGENAKEAKNYLKAASRMITALELIEFFKDQKNENSQAIKEAFLPFYVKKALMIKKFKKDPLNLKEKLPIIKPFIQTKIPYDLWKIWQKIKGILDKINFAK
- soluble on expression in E. coli: soluble

Source: the DeepSol protein solubility set
